Laboratory results as given in patent publication US20210395344A1 (TWIST BIOSCIENCE, published 2021).
Where a chain is given by its changes, count along the chain named.

B1: SARS-CoV-2 variant 1-2 (antibody, V domains shown)
VH: EVQLLESGGGLVQPGGSLRLSCAASGFTFSSQAMSWVRQAPGKGLEWVSAISGSGGGTYYADSVKGRFTISRDNSKNTLYLQMNSLRAEDTAVYYCAKDRRFGEFDPWGQGTLVTVSS
VL: QSALTQPASVSGSPGQSITISCTGTSSGVGSYNLVSWYQQHPGKAPKLMIYEGIKRPSGVSNRFSGSKSGNTASLTISGLQAEDEADYYCCSYAGSSSFVVFGGGTKLTVL
B2: SARS-CoV-2 variant 1-35 (antibody, V domains shown)
VH: EVQLLESGGGLVQPGGSLRLSCAASGFTFSNYAMSWVRQAPGKGLEWVSDISGSGGSTYYADSVKGRFTISRDNSKNTLYLQMNSLRAEDTAVYYCVKGTIPIFGVIRSAFDYWGQGTLVTVSS
VL: B1 VL with G28D, N33S, I54T, S97Y, F99Y
B3: SARS-CoV-2 variant 1-27 (antibody, V domains shown)
VH: EVQLLESGGGLVQPGGSLRLSCAASGFTFSSYAMTWVRQAPGKGLEWVSAISGSGGGTYYADSVKGRFTISRDNSKNTLYLQMNSLRAEDTAVYYCASSSSWQFDYWGQGTLVTVSS
VL: B1 VL with G28Y, S31H, I54S, K55R, S97Y, S98T, F99H, V100Y
B4: SARS-CoV-2 variant 1-43 (antibody, V domains shown)
VH: B1 VH with S49T, R100T, R101I, D106Y
VL: QSALTQPASVSGSPGQSITISCTGTSSDIGSYNLVSWYQQHPGKAPKLMIYEGTKRPSGVSNRFSGSKSGNTASLTISGLQAEDEADYYCCSYAGSRTYVFGGGTKLTVL
B5: SARS-CoV-2 variant 1-30 (antibody, V domains shown)
VH: EVQLLESGGGLVQPGGSLRLSCAASGFTFSSYAMTWVRQAPGKGLEWVSAISGSGGSTFYADSVKGRFTISRDNSKNTLYLQMNSLRAEDTAVYYCTRPPYGDYGDYWGQGTLVTVSS
VL: B1 VL with S27R, G28D, I54T, S97R, S98T, F99P
B6: SARS-CoV-2 variant 1-5 (antibody, V domains shown)
VH: B1 VH
VL: B1 VL with G53A, I54S, S97Y, S98T, V100A
B7: SARS-CoV-2 variant 1-4 (antibody, V domains shown)
VH: B1 VH
VL: B1 VL with G28D, S31T, I54S, K55Q
B8: SARS-CoV-2 variant 1-20 (antibody, V domains shown)
VH: EVQLLESGGGLVQPGGSLRLSCAASGITFSSYAMSWVRQAPGKGLEWVSGISGSGGSTYYADSVKGRFTISRDNSKNTLYLQMNSLRAEDTAVYYCANHGSGTIFGVVIAKYYFDYWGQGTLVTVSS
VL: B1 VL with G28D, S31H, I54T
B9: SARS-CoV-2 variant 1-44 (antibody, V domains shown)
VH: B1 VH with S49T, R101K
VL: B4 VL
B10: SARS-CoV-2 variant 1-28 (antibody, V domains shown)
VH: B3 VH with A33G, T35S
VL: B1 VL with I54S, K55Q, S98T, F99H, V100Y
B11: SARS-CoV-2 variant 1-3 (antibody, V domains shown)
VH: B1 VH
VL: B1 VL with T25I, G28D, I54T
B12: SARS-CoV-2 variant 1-31 (antibody, V domains shown)
VH: B5 VH with T35N
VL: B1 VL with G28D, S31K, I54S, K55Q, S97R, S98T, F99P
B13: SARS-CoV-2 variant 1-33 (antibody, V domains shown)
VH: B5 VH with T35I
VL: B1 VL with G28D, V35L, G53A, I54S, S97R, S98T, F99P
B14: SARS-CoV-2 variant 1-41 (antibody, V domains shown)
VH: EVQLLESGGGLVQPGGSLRLSCAASGFTFSSYDMSWVRQAPGKGLEWVSVISGSGGSTYYADSVKGRFTISRDNSKNTLYLQMNSLRAEDTAVYYCAKGPLVGWYFDLWGQGTLVTVSS
VL: B4 VL
B15: SARS-CoV-2 variant 1-49 (antibody, V domains shown)
VH: EVQLLESGGGLVQPGGSLRLSCAASGFTFSSYAMYWVRQAPGKGLEWVSAISGSAGSTYYADSVKGRFTISRDNSKNTLYLQMNSLRAEDTAVYYCARDTNDFWGQGTLVTVSS
VL: B4 VL
B16: SARS-CoV-2 variant 1-45 (antibody, V domains shown)
VH: EVQLLESGGGLVQPGGSLRLSCAASGFTFSSYAMSWVRQAPGKGLEWVSIISGSAGSTYYADSVKGRFTISRDNSKNTLYLQMNSLRAEDTAVYYCARDGYKYCLWGQGTLVTVSS
VL: B4 VL
B17: SARS-CoV-2 variant 1-29 (antibody, V domains shown)
VH: EVQLLESGGGLVQPGGSLRLSCAASGFTFSSYAMYWVRQAPGKGLEWVSAISGSAGSTYYADSVKGRFTISRDNSKNTLYLQMNSLRAEDTAVYYCARDTNDFWSGYSIFDPWGQGTLVTVSS
VL: B4 VL
B18: SARS-CoV-2 variant 1-46 (antibody, V domains shown)
VH: B17 VH with S30T, Y35S, A55G, R98N, N101S, W104C, S105F, S108W
VL: B4 VL
B19: SARS-CoV-2 variant 1-48 (antibody, V domains shown)
VH: B17 VH with Y32H, R98H, N101K, S108C
VL: B4 VL
B20: SARS-CoV-2 variant 1-39 (antibody, V domains shown)
VH: B5 VH with T35Y, S49T, D103Y
VL: B4 VL
B21: SARS-CoV-2 variant 1-50 (antibody, V domains shown)
VH: B15 VH with A33D, Y35S, A55G, S57T, D99G, T100P, N101L
VL: B4 VL
B22: SARS-CoV-2 variant 1-32 (antibody, V domains shown)
VH: B5 VH with T35Y
VL: QSALTQPASVSGSPGQSITISCTGTSSDVGGYNLVSWYQQHPGKAPKLMIYEGNKRPSGVSNRFSGSKSGNTASLTISGLQAEDEADYYCCSYAGSSTFPVVFGGGTKLTVL

Legend:
Test in all cases: phage ELISA
[1] = molecular target: T1, SARS-CoV-2 S1 (subunit 1) protein (SARS-CoV-2, UniProt P0DTC2 16-685)
T1 construct: also called biotinylated SARS-CoV-2 S1

S1-Fc = S1-Fc (SARS-CoV-2, UniProt P0DTC2 16-685)
[2] = molecular target: T2, COVID S1 RBM Fc fusion (Antigen 2) (SARS-CoV-2, UniProt P0DTC2 437-508)
T2 construct: domain: RBM

Row | Binder | screening ELISA (Avg), fold over background [1] [fold over background] | specificity ELISA, fold over background (S1-Fc) [fold over background] | specificity ELISA, percent binding relative to Acro S1 (S1-Fc) [%] | specificity ELISA, fold over background [2] [fold over background] | specificity ELISA, percent binding relative to Acro S1 [2] [%]
1 | B1 | 24.2 | 1.7 | 95.4 | 1.7 | 93.5
2 | B2 |  |  |  | 1.6 | 7.3
3 | B3 | 27.2 | 1.3 | 84.8 | 1.6 | 109
4 | B4 |  |  |  | 1 | 14.5
5 | B5 | 29.5 | 5.6 | 33.3 | 1.4 | 8.5
6 | B6 | 20.6 | 1.2 | 82.9 | 1.4 | 92
7 | B7 | 20.6 | 0.9 | 90.8 | 1.1 | 105
8 | B8 |  |  |  | 0.8 | 14.5
9 | B9 |  |  |  | 0.8 | 7.6
10 | B10 | 17.7 | 1.1 | 110 | 1.2 | 124
11 | B11 | 23.9 | 1.5 | 91.2 | 1.5 | 91.9
12 | B12 | 20.7 | 15.7 | 51.6 | 1.2 | 3.8
13 | B13 | 17.6 | 3 | 42.1 | 1 | 14.6
14 | B14 | 18.1 |  |  | 1.2 | 26.3
15 | B15 |  |  |  | 0.8 | 78.8
16 | B16 |  |  |  | 1 | 8.3
17 | B17 | 23.8 | 1 | 94 | 0.9 | 78.3
18 | B18 |  |  |  | 0.9 | 19.8
19 | B19 |  |  |  | 0.8 | 30.3
20 | B20 |  |  |  | 1.3 | 6.7
21 | B21 |  |  |  | 0.8 | 5.9
22 | B22 | 17.9 | 4 | 35.3 | 1.1 | 9.5
